The text below walks through data of US20160215040A1 (Regeneron, published 2016).

Numbering of substitutions follows the chain as printed. Bounds are passed on as bounds.

The target in experiment [1] is T1, Ebola virus GP with a C-terminal polyhistidine tag (Sino Biologicals, Catalog #40442-V08B1) (Ebola virus, UniProt P87666 33-650).
T1 construct: also called EbolaGP.his; Ebola virus GP.his
Nature of the experiment: SPR 25C, mAb captured.

Experiment [2] has as its target T2, Ebola virus GP, Sudan strain, on VLPs (Ebola virus, Sudan strain, UniProt Q7T9D9 33-676).
T2 construct: also called Sudan NC_006432
T2 sequence: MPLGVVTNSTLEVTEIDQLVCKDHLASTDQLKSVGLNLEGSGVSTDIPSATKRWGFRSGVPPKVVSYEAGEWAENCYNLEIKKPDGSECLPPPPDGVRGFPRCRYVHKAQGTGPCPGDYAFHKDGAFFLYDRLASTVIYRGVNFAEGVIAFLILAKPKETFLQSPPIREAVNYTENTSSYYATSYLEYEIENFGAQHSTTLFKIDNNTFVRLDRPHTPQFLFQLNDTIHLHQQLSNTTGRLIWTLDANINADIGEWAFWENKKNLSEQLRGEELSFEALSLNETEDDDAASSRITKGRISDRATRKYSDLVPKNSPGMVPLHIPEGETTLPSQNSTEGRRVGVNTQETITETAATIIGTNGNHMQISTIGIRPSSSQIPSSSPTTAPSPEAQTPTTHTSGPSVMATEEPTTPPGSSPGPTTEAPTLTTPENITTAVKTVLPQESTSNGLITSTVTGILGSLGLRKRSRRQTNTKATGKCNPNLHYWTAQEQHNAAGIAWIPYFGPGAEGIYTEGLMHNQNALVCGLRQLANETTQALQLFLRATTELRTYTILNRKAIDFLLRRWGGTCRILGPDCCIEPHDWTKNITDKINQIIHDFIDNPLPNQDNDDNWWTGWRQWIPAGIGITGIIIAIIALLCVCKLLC
Nature of the experiment: MSD, VLPs coated.

Experiment [3] deals with T1, Ebola virus GP with a C-terminal …. Nature of the experiment: SPR 37C, mAb captured, pH chase.
Experiment [4] has the same target. The experiment is described as follows: SPR 37C, mAb captured.
The target of experiment [5] is T3, hCNTFR.mmh (ciliary neurotrophic factor receptor.mmh) (human (printed as hCNTFR), UniProt P26992 23-342).
T3 construct: also called negative control protein; not shown: mmh (myc-myc-hexahistidine) tag
T3 sequence: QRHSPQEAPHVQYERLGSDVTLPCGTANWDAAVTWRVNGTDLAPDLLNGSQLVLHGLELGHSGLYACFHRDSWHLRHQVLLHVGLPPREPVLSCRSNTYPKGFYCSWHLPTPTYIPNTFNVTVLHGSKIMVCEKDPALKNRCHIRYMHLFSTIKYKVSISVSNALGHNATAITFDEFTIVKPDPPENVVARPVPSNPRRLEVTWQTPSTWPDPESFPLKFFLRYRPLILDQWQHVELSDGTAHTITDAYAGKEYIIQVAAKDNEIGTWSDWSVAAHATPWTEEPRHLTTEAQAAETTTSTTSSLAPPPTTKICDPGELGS
The experiment is described as follows: BLI, mAb captured, 25C. (In BLI a coated tip is dipped into the sample, and binding shifts an interference pattern.)

For experiment [6], the target named is T4, Ebola virus GP, Cote d'Ivoire strain, on VLPs (Ebola virus, Cote d'Ivoire strain, UniProt Q66810 33-676).
T4 construct: also called Cote d'Ivoire FJ217162; Ivory Coast
T4 sequence: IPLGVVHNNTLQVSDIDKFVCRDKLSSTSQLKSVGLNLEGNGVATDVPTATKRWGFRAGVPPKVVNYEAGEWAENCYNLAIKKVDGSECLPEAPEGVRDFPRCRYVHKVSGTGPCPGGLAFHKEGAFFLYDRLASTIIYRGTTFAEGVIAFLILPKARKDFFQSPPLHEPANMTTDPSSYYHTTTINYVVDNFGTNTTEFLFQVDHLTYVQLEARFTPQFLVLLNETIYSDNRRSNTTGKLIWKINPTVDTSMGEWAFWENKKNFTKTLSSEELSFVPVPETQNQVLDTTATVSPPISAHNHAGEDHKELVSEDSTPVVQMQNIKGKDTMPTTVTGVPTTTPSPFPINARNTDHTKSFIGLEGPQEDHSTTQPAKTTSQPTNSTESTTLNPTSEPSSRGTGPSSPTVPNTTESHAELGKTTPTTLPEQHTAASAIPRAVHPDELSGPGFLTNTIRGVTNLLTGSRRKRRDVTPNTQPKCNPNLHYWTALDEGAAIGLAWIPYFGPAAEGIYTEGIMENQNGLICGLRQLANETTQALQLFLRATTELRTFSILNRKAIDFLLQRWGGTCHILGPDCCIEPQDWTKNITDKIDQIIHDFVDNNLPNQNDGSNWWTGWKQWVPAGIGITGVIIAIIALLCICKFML
The experiment is described as follows: MSD, VLPs coated.

B1: H2aM17356N (antibody, V domains shown)
VH: EVQLVESGGGLVQPGGSLRLSCAASGFTFSSYEMNWVRQAPGKGLEWVSYIGSSGRATYYADSVKGRFTISRDNAKNSLYLQMNSLRAEDTAVYYCARPSSIAALLRNQYHFGMDVWGQGTTVTVSS
VL: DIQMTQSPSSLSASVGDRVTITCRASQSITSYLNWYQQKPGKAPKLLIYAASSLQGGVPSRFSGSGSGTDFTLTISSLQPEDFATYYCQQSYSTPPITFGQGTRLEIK
notes: also called HCAF08C07-09
By Kd is commonly meant the equilibrium constant for the complex coming apart. A high value points to weaker binding. In general, koff refers to a measure of how fast the partners let go of each other. A lower koff goes with slow dissociation. As usually defined, the kon is a measure of how fast the partners come together. In general, t½ refers to the time in which the quantity being followed falls by half. A lower t½ goes with rapid decline. With B1, in experiment [1], binding was put at a Kd of 4.4 nM, the koff came out at 9.57e-05 s⁻¹, the kon turned out to be 21800 M⁻¹ s⁻¹ and the t½ was 2.01 h. Further, in experiment [2], the binding result is given as “no binding”. Besides, in experiment [3], the “t½ ratio pH 7.4/pH 5.0” value worked out at 0.9 and the “t½ ratio pH 7.4/pH 6.0” value worked out at 0.9. In experiment [4], this molecule gave a Kd of 34.4 nM, a koff of 0.00025 s⁻¹, a kon of 7260 M⁻¹ s⁻¹ and a t½ of 0.77 h.

B2: H1H17360N (antibody, V domains shown)
VH: B1 VH with G52S, R56S, A57T, T58K, A103P, F112Y
VL: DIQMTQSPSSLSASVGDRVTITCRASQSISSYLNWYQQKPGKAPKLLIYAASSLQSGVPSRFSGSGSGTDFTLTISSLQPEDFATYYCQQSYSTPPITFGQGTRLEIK
Take B2: the binding result in experiment [5] is given as “no binding (tested: below 0.10 nm at 300 nM)”; in experiment [2], “no binding”; in experiment [6], “no binding”.

B3: H1H17356N (antibody, V domains shown)
VH: B1 VH
VL: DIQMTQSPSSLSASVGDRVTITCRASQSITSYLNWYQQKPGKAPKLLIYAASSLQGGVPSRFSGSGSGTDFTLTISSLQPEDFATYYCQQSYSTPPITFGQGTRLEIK
B3: the binding result in experiment [5] is “no binding (tested: below 0.10 nm at 300 nM)”.

B4: H1H17142P (antibody, V domains shown)
VH: EVQLVESGGGLVQPGGSLRLSCAASGFTFSSYAMTWVRQAPGKGLEWVSSISGSGTSTYYADSVKGRFTISRDNSKNTLYLQMNSLRAEDTALYYCSRDIYTWNFLSLIGGMDVWGQGTTVTVSS
VL: DIQMTQSPSSLSASVGDRVTITCRASQGIRIDLGWYQQKPGKAPNRLIYAASSLQGGVPSRFSGSGSGTEFTLTISSLQPEDFATYYCLQQNSYPWTFGQGTKVEIK
As to B4, the binding result in experiment [5] is “no binding (tested: below 0.10 nm at 300 nM)”. Also, in experiment [1], the affinity, expressed as Kd, was 1.41 nM; the koff stood at 2.81e-05 s⁻¹; the on-rate (kon) was determined as 20000 M⁻¹ s⁻¹; the t½ is 6.84 h. For the same molecule, the binding result in experiment [2] is listed as “no binding”. In addition, in experiment [3], the “t½ ratio pH 7.4/pH 5.0” value came to 0.5 and the “t½ ratio pH 7.4/pH 6.0” value came to 0.5. In experiment [4], this molecule returned a Kd of 6.68 nM, a koff of 0.000174 s⁻¹, a kon of 26000 M⁻¹ s⁻¹ and a t½ of 1.11 h.

B5: H1H17162P (antibody, V domains shown)
VH: EVQLVESGGGLVQPGGSLRLSCAASEFTFSSYAMSWVRQAPGKGLEWVSAISGSSGSTYYADSVKGRFTISRDNSKKTLYLQMNSLRVEDTAVYYCAKGGYPHSFDIWGHGTMVTVSS
VL: DIQMTQSPSSLSASVGDRVTITCRASQSISSFLNWYQQKPGKAPKLLIYAASSLQSGVPSRFSGSGSGTDFTLTISSLQPEDFATYYCQQSYSSITFGQGTRLEIK
On to B5, for which, in experiment [5], the binding result was “no binding (tested: below 0.10 nm at 300 nM)”. In experiment [1], this molecule gave a Kd not above 0.46 nM, a koff not above 1e-05 s⁻¹, a kon of 21800 M⁻¹ s⁻¹ and a t½ not below 19.2 h. For the same molecule, the binding result in experiment [6] is on record as “no binding”. In experiment [3], the “t½ ratio pH 7.4/pH 5.0” value came to 0.3 and the “t½ ratio pH 7.4/pH 6.0” value was determined as 0.3. For the same molecule, in experiment [4], the Kd was 0.288 nM, the koff is not above 1e-05 s⁻¹, the kon is 34700 M⁻¹ s⁻¹ and the t½ was not below 19.2 h.

B6: H1H17161P (antibody, V domains shown)
VH: B5 VH with E26G, F29S, S35N, A50T, S54M, S55G, K77N, V88A, G99R, H110Q
VL: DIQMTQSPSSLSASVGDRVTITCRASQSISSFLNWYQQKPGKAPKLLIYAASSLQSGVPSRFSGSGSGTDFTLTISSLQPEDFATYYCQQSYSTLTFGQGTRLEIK
notes: also called REGN H1H17161P
Turning to B6, in experiment [1], the Kd is not above 0.189 nM, the off-rate (koff) was not above 1e-05 s⁻¹, the kon came out at 52900 M⁻¹ s⁻¹ and the t½ is not below 19.2 h. Further, the binding result in experiment [6] was “no binding”. Also, in experiment [3], the “t½ ratio pH 7.4/pH 5.0” value was 0.2 and the “t½ ratio pH 7.4/pH 6.0” value was determined as 0.2. In experiment [4], the Kd stood at 0.228 nM, the koff is not above 1e-05 s⁻¹, the kon came to 43900 M⁻¹ s⁻¹ and the t½ was not below 19.2 h.

B7: H1H17151P (antibody, V domains shown)
VH: EVQLVESGGGLVQPGGSLRLSCAASGFTFSSYAMNWVRQAPGKGLEWVSVISGSGGWRNYADSVKGRITISRDNSKNTLYLQMNNLRAEDTAVYYCAKDRGATFGVVILGPPYYGMDVWGQGTTVTVSS
VL: DIQMTQSPSSLSASVRDRVTITCRASQSISTYLNWYQQKPGKAPKLLIYAASSLQSGVPSRFSGSGSGTGFTLTISSLQPEDFATYYCQQSYSIPYTFGQGTKLEIK
Consider B7, for which, in experiment [1], the affinity, expressed as Kd, was 7.49 nM; the koff came out at 9.44e-05 s⁻¹; the kon was found to be 12600 M⁻¹ s⁻¹; the t½ is 2.04 h. In experiment [2], the binding result was “no binding”. Besides, the binding result in experiment [6] is given as “no binding”. In addition, in experiment [3], the “t½ ratio pH 7.4/pH 5.0” value was determined as 0.01 and the “t½ ratio pH 7.4/pH 6.0” value is 0.03. In experiment [4], this molecule returned a Kd of 17 nM, an off-rate constant (koff) of 0.000383 s⁻¹, an on-rate (kon) of 22600 M⁻¹ s⁻¹ and a t½ of 0.503 h.

B8: H1H17134P (antibody, V domains shown)
VH: QLQLQESGPGLVKPSETLSLTCTVSGGSISSSSYYWGWIRQPPGKGLEWIGSIYYDGDTYYNPSLKSRVTISVDTSKNQFSLRLSSVTAADTAVYYCARQFDYWGQGTLVTVSS
VL: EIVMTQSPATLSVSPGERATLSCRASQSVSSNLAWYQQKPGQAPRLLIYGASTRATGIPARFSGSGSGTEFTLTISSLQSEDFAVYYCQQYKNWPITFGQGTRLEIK
Consider B8, for which, in experiment [1], the Kd is 12.3 nM, the koff was determined as 0.000941 s⁻¹, the kon was 76500 M⁻¹ s⁻¹ and the t½ stood at 0.205 h. In addition, the binding result in experiment [2] is “no binding”. Besides, the binding result in experiment [6] is reported as “no binding”. Moreover, in experiment [3], the “t½ ratio pH 7.4/pH 5.0” value was 0.6 and the “t½ ratio pH 7.4/pH 6.0” value came out at 0.6. Further, in experiment [4], the Kd was 6.7 nM, the koff worked out at 0.000469 s⁻¹, the kon was 69900 M⁻¹ s⁻¹ and the t½ is 0.41 h.

B9: H2aM17359N (antibody, V domains shown)
VH: EVQLVESGGGLAQPGGSLRLSCAASGFTFSSHEMNWVRQAPGKGLEWVSYISRSGRIINYADSVKGRFTISRDNAKNSLYLQMNSLRAEDTAVYYCARERGSYYDILTGSQDYGMDVWGQGTTVTVSS
VL: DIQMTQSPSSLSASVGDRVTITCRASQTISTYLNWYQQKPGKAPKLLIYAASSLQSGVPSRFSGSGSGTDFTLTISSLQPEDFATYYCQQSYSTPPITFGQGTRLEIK
notes: also called HCAF12C06-26
In experiment [1], B9 returned a Kd of 50.9 nM, an off-rate (koff) of 0.000195 s⁻¹, a kon of 3820 M⁻¹ s⁻¹ and a t½ of 0.99 h. Besides, the binding result in experiment [2] was “no binding”. For the same molecule, the binding result in experiment [6] is reported as “no binding”. In experiment [3], the “t½ ratio pH 7.4/pH 5.0” value is 0.7 and the “t½ ratio pH 7.4/pH 6.0” value worked out at 0.8. Further, in experiment [4], the Kd stood at 22.9 nM, the koff came to 0.000352 s⁻¹, the kon turned out to be 15400 M⁻¹ s⁻¹ and the t½ amounted to 0.547 h.

B10: H1H17359N (antibody, V domains shown)
VH: B9 VH
VL: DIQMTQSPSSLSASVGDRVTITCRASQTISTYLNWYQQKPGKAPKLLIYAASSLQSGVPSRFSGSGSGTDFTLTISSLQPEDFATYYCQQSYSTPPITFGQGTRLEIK
Regarding B10, the binding result in experiment [5] is “no binding (tested: below 0.10 nm at 300 nM)”.
